Laboratory results taken from patent US20210198329A1 (PASTEUR INSTITUTE OF IRAN, published 2021).
Bridges are numbered along the chain shown (N, C = ends). Where no end group is shown, it is not given here.

T1: low-density lipoprotein receptor-related protein 6 (LRP6) (UniProt O75581 20-1370, limits assumed)
T1 construct: also called LRP6 receptor
T1 sequence (looked up): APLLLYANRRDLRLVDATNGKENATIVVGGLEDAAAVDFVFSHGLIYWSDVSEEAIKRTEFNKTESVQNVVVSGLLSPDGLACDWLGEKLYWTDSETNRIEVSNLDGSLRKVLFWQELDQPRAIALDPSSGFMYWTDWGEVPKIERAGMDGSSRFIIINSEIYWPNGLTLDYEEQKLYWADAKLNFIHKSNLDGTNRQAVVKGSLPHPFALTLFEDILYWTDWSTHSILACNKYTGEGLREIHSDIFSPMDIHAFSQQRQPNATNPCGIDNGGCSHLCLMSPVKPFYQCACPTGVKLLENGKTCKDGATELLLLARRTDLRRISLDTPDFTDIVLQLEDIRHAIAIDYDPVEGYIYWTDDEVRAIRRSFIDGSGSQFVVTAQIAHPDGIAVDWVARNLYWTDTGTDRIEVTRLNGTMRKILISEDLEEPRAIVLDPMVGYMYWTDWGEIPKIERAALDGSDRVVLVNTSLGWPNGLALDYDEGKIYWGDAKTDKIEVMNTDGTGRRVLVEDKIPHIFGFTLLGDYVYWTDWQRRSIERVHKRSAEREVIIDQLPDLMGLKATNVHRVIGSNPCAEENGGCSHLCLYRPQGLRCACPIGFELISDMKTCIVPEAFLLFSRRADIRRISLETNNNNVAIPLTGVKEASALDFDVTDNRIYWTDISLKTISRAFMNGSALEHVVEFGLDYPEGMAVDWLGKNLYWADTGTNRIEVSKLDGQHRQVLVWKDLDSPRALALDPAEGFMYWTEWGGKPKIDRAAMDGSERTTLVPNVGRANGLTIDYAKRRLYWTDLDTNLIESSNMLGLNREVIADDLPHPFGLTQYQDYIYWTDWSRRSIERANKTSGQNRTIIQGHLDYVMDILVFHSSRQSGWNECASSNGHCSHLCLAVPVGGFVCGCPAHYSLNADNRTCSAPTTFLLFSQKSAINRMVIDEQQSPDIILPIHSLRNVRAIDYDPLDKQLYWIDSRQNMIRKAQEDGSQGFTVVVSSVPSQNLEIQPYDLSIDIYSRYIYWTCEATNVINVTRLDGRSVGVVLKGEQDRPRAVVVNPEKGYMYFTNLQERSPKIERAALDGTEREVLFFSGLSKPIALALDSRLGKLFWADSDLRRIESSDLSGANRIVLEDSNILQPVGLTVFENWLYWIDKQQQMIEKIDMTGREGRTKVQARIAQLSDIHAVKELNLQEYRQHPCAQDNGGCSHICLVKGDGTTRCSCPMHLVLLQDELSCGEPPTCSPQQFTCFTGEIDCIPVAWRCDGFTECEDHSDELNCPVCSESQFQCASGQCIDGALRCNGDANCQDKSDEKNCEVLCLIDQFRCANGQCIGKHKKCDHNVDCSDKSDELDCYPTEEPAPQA


Target: T1, low-density lipoprotein …
Experiment: LSPR spectroscopy; peptide on nanoparticles as ligand, LRP6 as analyte at 10^-9 to 10^-6 M; sigmoid fit of plasmon shift
Procedure: In this example, the binding affinity of exemplary peptides to the LRP6 receptor was determined by performing localized surface plasmon resonance (LSPR) spectroscopy. In the LSPR spectroscopy, the response of free electrons to nanoparticles in the presence of biomolecules may be observed as changes in wavelength and intensity of absorption. A stabilized compound on the nanoparticles' surface is called a ligand, and a second free compound is called an analyte. […] Also, the LRP6 was used as the analyte because of its negative surface charge. By adding the LRP6 as the analyte in the concentration ranges of 10⁻⁹ M to 10⁻⁶ M, the wavelength changes (plasmon shift) were recorded for each concentration. In the end, the KD values of exemplary peptides were determined by calculating the sigmoid curve of wavelength changes in terms of LRP6 concentration.

Row | Binder | Kd [nM]
1 | QVCTKHRRKGSHGLEIFQRCY (Held on nanoparticles as the ligand in the LSPR assay) [pep-2 (SEQ ID NO: 2)] | ~470
2 | CCARHFWSKIC (disulfide 1-11, Made by synthesis; Held on nanoparticles as the ligand in the LSPR assay) [pep-4 (SEQ ID NO: 4)] | ~550
